This note sets out measurements from patent US5756684, “Cloning and expression of PUR protein” (Mount Sinai School of Medicine of the City of New York).

One series has as its target GST-Tat (HIV-1, UniProt P04608 P04608:1-86). The series is described as follows: EMSA; Tat stated not to bind the upTAR element itself. Conditions: tags: GST; label: 32P end.
The target in another series is T1, GST-Pur-alpha (Homo sapiens, UniProt Q00577 SEQ:1-322).
T1 sequence: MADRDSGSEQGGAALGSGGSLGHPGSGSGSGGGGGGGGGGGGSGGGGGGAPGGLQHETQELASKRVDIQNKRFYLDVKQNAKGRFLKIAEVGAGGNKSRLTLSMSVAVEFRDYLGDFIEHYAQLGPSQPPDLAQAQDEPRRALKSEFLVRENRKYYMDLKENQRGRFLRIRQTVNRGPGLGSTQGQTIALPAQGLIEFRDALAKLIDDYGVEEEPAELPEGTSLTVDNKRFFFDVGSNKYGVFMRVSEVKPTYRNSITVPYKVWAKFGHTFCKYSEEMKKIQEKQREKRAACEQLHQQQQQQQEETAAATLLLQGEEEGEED
The series is described as follows: EMSA; 7.5 pmol; Tat at 1:1 enhances binding nearly 10-fold. Conditions: tags: N-terminal GST; label: 32P end. The method, then: FIG. 21A. Specificity of binding of Purα to the JCV upTAR element. The different oligonucleotide probes used for the indicated reactions are: JCV+, the purine-rich single strand of the upTAR element; JCV ds, the double-stranded upTAR element, only the pyrimidine-rich strand of which is labeled; JCV−, the pyrimidine-rich strand of the upTAR element.
8.1.2. Binding of PURα to the JVC upTAR PUR Element in the Presence or Absence of Tat All gel shifts were performed as described in Section 6.1.2. using ^32P end-labeled 24-mer oligonucleotide probe representing a dimer of the upTAR element. The purine-rich strand of this oligonucleotide is: 5'-[…]-3' SEQ ID NO:51. For both panels A and B, all Tat, Purα and Purα deletion mutant proteins were employed GST fusion proteins prepared by purification on glutathione agarose columns as described for FIG. 20 and eluted with glutathione. In both panels for lanes labeled +, 7.5 pmoles of each indicated protein were used. Specificity of binding of Purα to the JCV upTAR element. The different oligonucleotide probes used for the indicated reactions are: JCV+, the purine-rich single strand of the upTAR element; JCV ds, the double-stranded upTAR element, only the pyrimidine-rich strand of which is labeled; JCV−, the pyrimidine-rich strand of the upTAR element. Effect of Tat upon biding of a series of Purα deletion mutants to the JCV upTAR element. […]
(In general: In EMSA bound probe runs differently from free probe, usually more slowly.)

B1: JCV+ (upTAR purine-rich strand dimer) (ssDNA)
DNA: GGAGGCGGAGGCGGAGGCGGAGGC
B1: the binding result in the series with GST-Tat is “no binding”; with GST-Pur-alpha, “binds”.
